Data on 62 sequences can be found in the supplement of paper PMC7877785.

The series in a line: self-splicing fitness, log relative to wild type (ln ratio); higher = more splicing; Tetrahymena group I intron in knt gene, E. coli kanamycin selection, DiMSum; sequences stand for … in CUCUCU…GGAGGGAAAAGUUAUCAGGCAUGCACCUGGUAGCUAGUCUUUAAACCAAUAGAUUGCAUCGGUUUAAAAGGCAAGACCGUCAAAUUGCGGGAAAGGGGUCAACAGCCGUUCAGUACCAAGUCUCAGGGGAAACUUUGAGAUGGCCUUGCAAAGGGUAUGGUAAUAAGCUGACGGACAUGGUCCUAACCACGCAGCCAAGUCCUAAGUCAACAGAUCUUCUGUUGAUAUGGAUGCAGUUCACAGACUAAAUGUCGGUCGGGGAAGAUGUAUUCUUCUCAUAAGAUAUAGUCGGACCUCUCCUUAAUGGGAGCUAGCGGAUGAAGUGAUGCAACACUGGAGCCGCUGGGAACUAAUUUGUAUGCGAAAGUAUAUUGAUUAGUUUUGGAGUACUCGUGGUCG
The gist of the method:
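DiMSum derived fitness as the error-weighted combination of fold changes across replicates, kanamycin versus no kanamycin, normalised to wild type. E. coli BL21(DE3) held the library, which randomised all eight P1ex-region intron nucleotides within the knt kanamycin-resistance gene on pET-22b(+). Six replicate transformations grew overnight at 37°C or 30°C on LB agar with or without 25 μg/mL kanamycin, also containing 100 μg/mL carbenicillin, 50 μM IPTG and 0.2% rhamnose, and pooled colonies were amplicon-sequenced on an Illumina HiSeq 2500.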

± gives the uncertainty stated by the source.

Take AAACAGCAAUAUUACGUUGC: the “self-splicing fitness (ln)” value is -3.24 ± 0.11 (30 °C) and -3.26 ± 0.18 (37 °C). Taken in the same sequence, the figures for AUUUAGCAAUAUUACGGCAA were -1.05 ± 0.16 and -0.726 ± 0.17. Regarding AGAAAGCAAUAUUACGAGGC, the “self-splicing fitness (ln)” value is -3.15 ± 0.42 (30 °C) and -2.66 ± 0.41 (37 °C).

UUGGAGCAAUAUUACGCAAA: the “self-splicing fitness (ln)” value by setting is: (30 °C) -2.95 ± 0.44; (37 °C) -2.54 ± 0.41.

As to CGGUAGCAAUAUUACGUUGA, the “self-splicing fitness (ln)” value reads like this: (30 °C) -3.27 ± 0.35; (37 °C) -1.76 ± 0.17. For GGCAAGCAAUAUUACGGAUU, in that order: -0.462 ± 0.11 and -0.427 ± 0.13. Taken in the same sequence, the figures for UCUGAGCAAUAUUACGCAGG were -2.76 ± 0.32 and -1.29 ± 0.21. For ACCUAGCAAUAUUACGGCCC, in that order: -0.812 ± 0.18 and -0.39 ± 0.24. As for GUUAAGCAAUAUUACGCUUC, the “self-splicing fitness (ln)” value (37 °C) is -1.01 ± 0.49. Take CGCAAGCAAUAUUACGAUGA: the “self-splicing fitness (ln)” value by setting is: (30 °C) -0.874 ± 0.064; (37 °C) -0.853 ± 0.071.

Consider GACUAGCAAUAUUACGCCUG, for which the “self-splicing fitness (ln)” value was -0.826 ± 0.12 (30 °C) and -0.091 ± 0.14 (37 °C).

Consider GUUCAGCAAUAUUACGCCAU, for which the “self-splicing fitness (ln)” value by setting is: (30 °C) -2.66 ± 0.21; (37 °C) -1.99 ± 0.14. Take ACGCAGCAAUAUUACGCUGA: the “self-splicing fitness (ln)” value was -0.604 ± 0.095 (30 °C) and -0.835 ± 0.11 (37 °C).

For GGUGAGCAAUAUUACGGUCU, the “self-splicing fitness (ln)” value by setting is: (30 °C) -0.893 ± 0.14; (37 °C) -0.768 ± 0.2. Taken in the same sequence, the figures for UGGAAGCAAUAUUACGCGCU were -1.17 ± 0.21 and -1.52 ± 0.3.

On to AGCAAGCAAUAUUACGUUAG, for which the “self-splicing fitness (ln)” value (30 °C) is -2.96 ± 0.17 and the “self-splicing fitness (ln)” value (37 °C) is -2.24 ± 0.22. As for CAUGAGCAAUAUUACGUGAA, the “self-splicing fitness (ln)” value by setting is: (30 °C) -3.86 ± 0.3; (37 °C) -2.53 ± 0.29. CAGGAGCAAUAUUACGAUCU: for the setting “37 °C”, the “self-splicing fitness (ln)” value is -2.45 ± 0.45. For UGCGAGCAAUAUUACGACUA, the “self-splicing fitness (ln)” value by setting is: (30 °C) -1.26 ± 0.23; (37 °C) -1.09 ± 0.28. Consider GACUAGCAAUAUUACGUUCG, for which the “self-splicing fitness (ln)” value (30 °C) was -3.18 ± 0.22 and the “self-splicing fitness (ln)” value (37 °C) was -0.787 ± 0.13.

UACCAGCAAUAUUACGCGGU: the “self-splicing fitness (ln)” value is, setting by setting: (30 °C) -4.05 ± 0.17; (37 °C) -3.47 ± 0.2.

For AUUGAGCAAUAUUACGCGCG, the “self-splicing fitness (ln)” value (30 °C) is -3.04 ± 0.21 and the “self-splicing fitness (ln)” value (37 °C) was -2.22 ± 0.16. Regarding AAGCAGCAAUAUUACGACUC, the “self-splicing fitness (ln)” value was -0.122 ± 0.097 (30 °C) and 0.677 ± 0.13 (37 °C). Take GUAUAGCAAUAUUACGGAAG: for the setting “37 °C”, the “self-splicing fitness (ln)” value is -1.92 ± 0.27.

With CAAGAGCAAUAUUACGGCAG, the “self-splicing fitness (ln)” value reads like this: (30 °C) -1.54 ± 0.091; (37 °C) -0.926 ± 0.13. With UGCGAGCAAUAUUACGAGCC, the “self-splicing fitness (ln)” value (37 °C) is -1.67 ± 0.43.

Take UUGCAGCAAUAUUACGAUAA: the “self-splicing fitness (ln)” value reads like this: (30 °C) -0.501 ± 0.11; (37 °C) 0.0102 ± 0.12. With GGUGAGCAAUAUUACGGUAA, the “self-splicing fitness (ln)” value (37 °C) was -2.66 ± 0.4.

Take GGUUAGCAAUAUUACGGAUA: the “self-splicing fitness (ln)” value is, setting by setting: (30 °C) -1.23 ± 0.14; (37 °C) 0.704 ± 0.17.

Turning to CCAUAGCAAUAUUACGCGCA, the “self-splicing fitness (ln)” value is -2.65 ± 0.27 (30 °C) and -2 ± 0.34 (37 °C).

GCGCAGCAAUAUUACGUCGC: the “self-splicing fitness (ln)” value is, setting by setting: (30 °C) -2.27 ± 0.14; (37 °C) -2.2 ± 0.27. Regarding AUAAAGCAAUAUUACGUGCG, the “self-splicing fitness (ln)” value is, setting by setting: (30 °C) -0.493 ± 0.083; (37 °C) 0.137 ± 0.1. On to AGUGAGCAAUAUUACGGGUU, for which the “self-splicing fitness (ln)” value is -2.39 ± 0.26 (30 °C) and -2.35 ± 0.33 (37 °C). As to CGGGAGCAAUAUUACGUUGU, the “self-splicing fitness (ln)” value by setting is: (30 °C) -4.45 ± 0.29; (37 °C) -2.65 ± 0.26. Regarding GUCGAGCAAUAUUACGCUGU, the “self-splicing fitness (ln)” value reads like this: (30 °C) -1.73 ± 0.13; (37 °C) -1.62 ± 0.2. For AAUGAGCAAUAUUACGGGUG, in that order: -3.73 ± 0.33 and -2.72 ± 0.22. In the case of CACGAGCAAUAUUACGCGGA, the “self-splicing fitness (ln)” value is, setting by setting: (30 °C) -3.61 ± 0.37; (37 °C) -3.37 ± 0.4. For AAUAAGCAAUAUUACGAUCG, in that order: -1 ± 0.081 and -0.0681 ± 0.096.

With ACAAAGCAAUAUUACGGGUG, the “self-splicing fitness (ln)” value reads like this: (30 °C) -1.21 ± 0.046; (37 °C) -0.593 ± 0.064.

Take CGCUAGCAAUAUUACGGUAU: the “self-splicing fitness (ln)” value (30 °C) was -3.03 ± 0.15 and the “self-splicing fitness (ln)” value (37 °C) is -2.39 ± 0.19.

As for AACCAGCAAUAUUACGUAAG, the “self-splicing fitness (ln)” value is -1.28 ± 0.059 (30 °C) and -0.259 ± 0.072 (37 °C).

As for CAUUAGCAAUAUUACGUAUC, the “self-splicing fitness (ln)” value is -3.14 ± 0.31 (30 °C) and -2.26 ± 0.28 (37 °C). For ACGGAGCAAUAUUACGCAUC, in that order: -2.6 ± 0.17 and -2.03 ± 0.21. Taken in the same sequence, the figures for GGGCAGCAAUAUUACGAGCG were -0.755 ± 0.1 and 0.344 ± 0.12. Taken in the same sequence, the figures for UCGUAGCAAUAUUACGCCCG were -0.251 ± 0.19 and -0.113 ± 0.17. UUACAGCAAUAUUACGGUUG: the “self-splicing fitness (ln)” value is, setting by setting: (30 °C) -0.8 ± 0.054; (37 °C) -0.338 ± 0.07.

UACUAGCAAUAUUACGAUUC: the “self-splicing fitness (ln)” value was -2.3 ± 0.23 (30 °C) and -1.76 ± 0.43 (37 °C). For GUGCAGCAAUAUUACGGCGG, in that order: -1.98 ± 0.11 and -1.1 ± 0.13.

Consider GACCAGCAAUAUUACGCCAG, for which the “self-splicing fitness (ln)” value was -3.98 ± 0.28 (30 °C) and -0.652 ± 0.19 (37 °C). For UACAAGCAAUAUUACGGUCU, the “self-splicing fitness (ln)” value reads like this: (30 °C) -1.52 ± 0.052; (37 °C) -0.534 ± 0.065.

In the case of GAUCAGCAAUAUUACGCUAC, the “self-splicing fitness (ln)” value by setting is: (30 °C) -3.38 ± 0.48; (37 °C) -1.62 ± 0.29. On to GAUGAGCAAUAUUACGCCGA, for which the “self-splicing fitness (ln)” value (37 °C) is -1.44 ± 0.45.

CCGAAGCAAUAUUACGUUAA: the “self-splicing fitness (ln)” value (37 °C) is -0.989 ± 0.23. With GUGUAGCAAUAUUACGAGUG, the “self-splicing fitness (ln)” value (30 °C) was -2.83 ± 0.43. Take ACGCAGCAAUAUUACGAGGU: the “self-splicing fitness (ln)” value runs as follows: (30 °C) -3.55 ± 0.17; (37 °C) -2.27 ± 0.16. For GGUUAGCAAUAUUACGUCAU, in that order: -1.03 ± 0.21 and 0.277 ± 0.21. For GAACAGCAAUAUUACGUGAU, in that order: -0.746 ± 0.058 and -0.432 ± 0.075.

With UACUAGCAAUAUUACGCCAU, the “self-splicing fitness (ln)” value is, setting by setting: (30 °C) -2.57 ± 0.26; (37 °C) -3.06 ± 0.33. Turning to GCCCAGCAAUAUUACGAAAA, the “self-splicing fitness (ln)” value (30 °C) is -1.7 ± 0.1 and the “self-splicing fitness (ln)” value (37 °C) was -1.87 ± 0.12. As to GAAAAGCAAUAUUACGUUGC, the “self-splicing fitness (ln)” value runs as follows: (30 °C) -3.83 ± 0.15; (37 °C) -2.67 ± 0.14. For UUAGAGCAAUAUUACGGCAG, in that order: -1.01 ± 0.18 and -0.707 ± 0.24. For GUAUAGCAAUAUUACGUUAG, in that order: -2.87 ± 0.21 and -1.07 ± 0.22.
